Reference: patent publication US20020137138A1

Molecular target: human short form of the 5-HT3-A receptor (Genbank accession #D49394) (human) (UniProt P46098)
Assay: cell-based or functional assay

Sequence of human short form of the 5-HT3-A receptor (Genbank accession #D49394) (human) (P46098 24-478): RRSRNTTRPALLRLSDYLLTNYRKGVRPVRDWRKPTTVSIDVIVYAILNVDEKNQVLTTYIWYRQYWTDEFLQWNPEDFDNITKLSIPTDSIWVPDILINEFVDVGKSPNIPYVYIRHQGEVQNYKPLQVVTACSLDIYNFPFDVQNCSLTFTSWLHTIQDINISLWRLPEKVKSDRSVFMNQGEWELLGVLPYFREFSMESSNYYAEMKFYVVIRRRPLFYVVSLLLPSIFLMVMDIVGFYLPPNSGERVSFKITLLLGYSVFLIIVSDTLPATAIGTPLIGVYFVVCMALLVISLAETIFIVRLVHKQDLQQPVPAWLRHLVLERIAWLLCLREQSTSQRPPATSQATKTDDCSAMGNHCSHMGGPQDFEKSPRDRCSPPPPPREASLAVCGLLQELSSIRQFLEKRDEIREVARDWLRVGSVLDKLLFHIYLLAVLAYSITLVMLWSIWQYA

“human 5-HT3-C (human serotonin 5-HT3 receptor modifier subunit 5-HT3-C) (from UniProt Q8WXA8 28-447)” was tested, and the 5-HT response, oocytes at a 1.8x fold 5-HT3-C to 5-HT3-A cRNA concentration was 20 % diminished, the peak current to 5-HT, oocytes injected with 5-HT3-C and 5-HT3-A(short) at a ratio of 2:1 was -0.028 nA and the peak response to 10 µM 5-HT (two-electrode voltage clamp, Xenopus oocytes co-injected with 2-fold more 5-HT3-C cRNA, 0.67 ng) was 10 % of control. It also gave a response to 10 µM 5-HT, oocytes injected with 5-HT3-C:5-HT3-A(short) at 10:1 (3.35 ng : 0.33 ng cRNA) of -0.01 nA.
